# Results published in patent publication US20020142964A1 (published 2002).
# T1: human G-CSF receptor (human, UniProt Q99062 25-836)
# T1 sequence (looked up): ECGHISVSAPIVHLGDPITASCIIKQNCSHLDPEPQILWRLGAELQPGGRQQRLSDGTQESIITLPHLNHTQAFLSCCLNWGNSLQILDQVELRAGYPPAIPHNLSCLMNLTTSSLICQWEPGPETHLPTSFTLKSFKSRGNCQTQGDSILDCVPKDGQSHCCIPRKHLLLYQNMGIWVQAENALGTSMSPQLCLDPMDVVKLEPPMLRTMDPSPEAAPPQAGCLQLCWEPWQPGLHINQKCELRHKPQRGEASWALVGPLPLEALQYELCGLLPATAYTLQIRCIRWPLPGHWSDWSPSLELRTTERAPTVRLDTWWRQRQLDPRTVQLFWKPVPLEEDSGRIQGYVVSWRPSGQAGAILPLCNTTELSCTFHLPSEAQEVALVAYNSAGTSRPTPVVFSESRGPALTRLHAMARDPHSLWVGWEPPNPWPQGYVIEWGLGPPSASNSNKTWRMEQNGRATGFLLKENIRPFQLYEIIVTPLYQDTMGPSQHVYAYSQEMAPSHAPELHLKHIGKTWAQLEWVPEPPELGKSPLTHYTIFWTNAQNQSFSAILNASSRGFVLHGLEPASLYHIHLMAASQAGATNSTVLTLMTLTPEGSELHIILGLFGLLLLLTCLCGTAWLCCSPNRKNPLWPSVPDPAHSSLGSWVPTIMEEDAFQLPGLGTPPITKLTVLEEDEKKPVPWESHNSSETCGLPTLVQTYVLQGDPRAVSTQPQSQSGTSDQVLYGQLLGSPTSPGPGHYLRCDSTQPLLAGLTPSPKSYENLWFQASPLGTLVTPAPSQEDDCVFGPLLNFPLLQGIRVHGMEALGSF
# Target: T1, human G-CSF receptor
# Experiment: cell-based or functional assay
row,"EC50, luciferase reporter assay in BaF3/hGCSF-R/pfos-lux cells (Primary assay 2)",Binder
1,0.03 nM,non-conjugated hG-CSF (Neupogen®) (ligand) TPLGPASSLPQSFLLKCLEQVRKIQGDGAALQEKLCATYKLCHPEELVLLGHSLGIPWAPLSSCPSQALQLAGCLSQLHSGLFLYQGLLQALEGISPELGPTLDTLQLDVADFATTIWQQMEELGMAPALQPTQGAMPAFASAFQRRAGGVLVASHLQSFLEVSYRVLRHLAQP

# Target: T1, human G-CSF receptor
# Experiment: cell-based or functional assay
# Remark: another data set of the same source
row,Binder,"Specific activity (% of Neupogen®), from EC50 in luciferase reporter assay"
1,"Single-chain G-CSF dimer (K16R K34R K40R)copy 1,2 (ligand) TPLGPASSLPQSFLLRCLEQVRKIQGDGAALQERLCATYRLCHPEELVLLGHSLGIPWAPLSSCPSQALQLAGCLSQLHSGLFLYQGLLQALEGISPELGPTLDTLQLDVADFATTIWQQMEELGMAPALQPTQGAMPAFASAFQRRAGGVLVASHLQSFLEVSYRVLRHLAQPTPLGPASSLPQSFLLRCLEQVRKIQGDGAALQERLCATYRLCHPEELVLLGHSLGIPWAPLSSCPSQALQLAGCLSQLHSGLFLYQGLLQALEGISPELGPTLDTLQLDVADFATTIWQQMEELGMAPALQPTQGAMPAFASAFQRRAGGVLVASHLQSFLEVSYRVLRHLAQP",300 % of Neupogen®
2,"Single-chain G-CSF dimer (K16R K34R)copy 1,2 (ligand) TPLGPASSLPQSFLLRCLEQVRKIQGDGAALQERLCATYKLCHPEELVLLGHSLGIPWAPLSSCPSQALQLAGCLSQLHSGLFLYQGLLQALEGISPELGPTLDTLQLDVADFATTIWQQMEELGMAPALQPTQGAMPAFASAFQRRAGGVLVASHLQSFLEVSYRVLRHLAQPTPLGPASSLPQSFLLRCLEQVRKIQGDGAALQERLCATYKLCHPEELVLLGHSLGIPWAPLSSCPSQALQLAGCLSQLHSGLFLYQGLLQALEGISPELGPTLDTLQLDVADFATTIWQQMEELGMAPALQPTQGAMPAFASAFQRRAGGVLVASHLQSFLEVSYRVLRHLAQP",329 % of Neupogen®
3,"Single-chain G-CSF dimer (K16R K34R K40R)copy 1,2 PEG5000 (ligand, SPA-PEG 5000 covalently linked to the available PEGylation sites; number and positions not stated) TPLGPASSLPQSFLLRCLEQVRKIQGDGAALQERLCATYRLCHPEELVLLGHSLGIPWAPLSSCPSQALQLAGCLSQLHSGLFLYQGLLQALEGISPELGPTLDTLQLDVADFATTIWQQMEELGMAPALQPTQGAMPAFASAFQRRAGGVLVASHLQSFLEVSYRVLRHLAQPTPLGPASSLPQSFLLRCLEQVRKIQGDGAALQERLCATYRLCHPEELVLLGHSLGIPWAPLSSCPSQALQLAGCLSQLHSGLFLYQGLLQALEGISPELGPTLDTLQLDVADFATTIWQQMEELGMAPALQPTQGAMPAFASAFQRRAGGVLVASHLQSFLEVSYRVLRHLAQP",10 % of Neupogen®
4,"Single-chain G-CSF dimer (K16R K34R K40R)copy 1,2 PEG12000 (ligand, SPA-PEG 12000 covalently linked to the available PEGylation sites; number and positions not stated) TPLGPASSLPQSFLLRCLEQVRKIQGDGAALQERLCATYRLCHPEELVLLGHSLGIPWAPLSSCPSQALQLAGCLSQLHSGLFLYQGLLQALEGISPELGPTLDTLQLDVADFATTIWQQMEELGMAPALQPTQGAMPAFASAFQRRAGGVLVASHLQSFLEVSYRVLRHLAQPTPLGPASSLPQSFLLRCLEQVRKIQGDGAALQERLCATYRLCHPEELVLLGHSLGIPWAPLSSCPSQALQLAGCLSQLHSGLFLYQGLLQALEGISPELGPTLDTLQLDVADFATTIWQQMEELGMAPALQPTQGAMPAFASAFQRRAGGVLVASHLQSFLEVSYRVLRHLAQP",10 % of Neupogen®
5,Single-chain G-CSF dimer (ligand) TPLGPASSLPQSFLLKCLEQVRKIQGDGAALQEKLCATYKLCHPEELVLLGHSLGIPWAPLSSCPSQALQLAGCLSQLHSGLFLYQGLLQALEGISPELGPTLDTLQLDVADFATTIWQQMEELGMAPALQPTQGAMPAFASAFQRRAGGVLVASHLQSFLEVSYRVLRHLAQPTPLGPASSLPQSFLLKCLEQVRKIQGDGAALQEKLCATYKLCHPEELVLLGHSLGIPWAPLSSCPSQALQLAGCLSQLHSGLFLYQGLLQALEGISPELGPTLDTLQLDVADFATTIWQQMEELGMAPALQPTQGAMPAFASAFQRRAGGVLVASHLQSFLEVSYRVLRHLAQP,214 % of Neupogen®
6,"Single-chain G-CSF dimer (K16R K34R)copy 1,2 PEG5000 (ligand, SPA-PEG 5000 covalently linked to the available PEGylation sites; number and positions not stated) TPLGPASSLPQSFLLRCLEQVRKIQGDGAALQERLCATYKLCHPEELVLLGHSLGIPWAPLSSCPSQALQLAGCLSQLHSGLFLYQGLLQALEGISPELGPTLDTLQLDVADFATTIWQQMEELGMAPALQPTQGAMPAFASAFQRRAGGVLVASHLQSFLEVSYRVLRHLAQPTPLGPASSLPQSFLLRCLEQVRKIQGDGAALQERLCATYKLCHPEELVLLGHSLGIPWAPLSSCPSQALQLAGCLSQLHSGLFLYQGLLQALEGISPELGPTLDTLQLDVADFATTIWQQMEELGMAPALQPTQGAMPAFASAFQRRAGGVLVASHLQSFLEVSYRVLRHLAQP",19 % of Neupogen®

# Continued, values first:
row,"Specific activity (% of Neupogen®), from EC50 in luciferase reporter assay",Binder
1,25 % of Neupogen®,"Single-chain G-CSF dimer PEG20000 (ligand, SPA-PEG 20000 covalently linked to the available PEGylation sites; number and positions not stated) TPLGPASSLPQSFLLKCLEQVRKIQGDGAALQEKLCATYKLCHPEELVLLGHSLGIPWAPLSSCPSQALQLAGCLSQLHSGLFLYQGLLQALEGISPELGPTLDTLQLDVADFATTIWQQMEELGMAPALQPTQGAMPAFASAFQRRAGGVLVASHLQSFLEVSYRVLRHLAQPTPLGPASSLPQSFLLKCLEQVRKIQGDGAALQEKLCATYKLCHPEELVLLGHSLGIPWAPLSSCPSQALQLAGCLSQLHSGLFLYQGLLQALEGISPELGPTLDTLQLDVADFATTIWQQMEELGMAPALQPTQGAMPAFASAFQRRAGGVLVASHLQSFLEVSYRVLRHLAQP"
2,135 % of Neupogen®,"Single-chain G-CSF dimer (K16R)copy 1,2 (ligand) TPLGPASSLPQSFLLRCLEQVRKIQGDGAALQEKLCATYKLCHPEELVLLGHSLGIPWAPLSSCPSQALQLAGCLSQLHSGLFLYQGLLQALEGISPELGPTLDTLQLDVADFATTIWQQMEELGMAPALQPTQGAMPAFASAFQRRAGGVLVASHLQSFLEVSYRVLRHLAQPTPLGPASSLPQSFLLRCLEQVRKIQGDGAALQEKLCATYKLCHPEELVLLGHSLGIPWAPLSSCPSQALQLAGCLSQLHSGLFLYQGLLQALEGISPELGPTLDTLQLDVADFATTIWQQMEELGMAPALQPTQGAMPAFASAFQRRAGGVLVASHLQSFLEVSYRVLRHLAQP"
3,8 % of Neupogen®,"Single-chain G-CSF dimer (K16R K34R)copy 1,2 PEG12000 (ligand, SPA-PEG 12000 covalently linked to the available PEGylation sites; number and positions not stated) TPLGPASSLPQSFLLRCLEQVRKIQGDGAALQERLCATYKLCHPEELVLLGHSLGIPWAPLSSCPSQALQLAGCLSQLHSGLFLYQGLLQALEGISPELGPTLDTLQLDVADFATTIWQQMEELGMAPALQPTQGAMPAFASAFQRRAGGVLVASHLQSFLEVSYRVLRHLAQPTPLGPASSLPQSFLLRCLEQVRKIQGDGAALQERLCATYKLCHPEELVLLGHSLGIPWAPLSSCPSQALQLAGCLSQLHSGLFLYQGLLQALEGISPELGPTLDTLQLDVADFATTIWQQMEELGMAPALQPTQGAMPAFASAFQRRAGGVLVASHLQSFLEVSYRVLRHLAQP"
4,120 % of Neupogen®,"Single-chain G-CSF dimer PEG5000 (ligand, SPA-PEG 5000 covalently linked to the available PEGylation sites; number and positions not stated) TPLGPASSLPQSFLLKCLEQVRKIQGDGAALQEKLCATYKLCHPEELVLLGHSLGIPWAPLSSCPSQALQLAGCLSQLHSGLFLYQGLLQALEGISPELGPTLDTLQLDVADFATTIWQQMEELGMAPALQPTQGAMPAFASAFQRRAGGVLVASHLQSFLEVSYRVLRHLAQPTPLGPASSLPQSFLLKCLEQVRKIQGDGAALQEKLCATYKLCHPEELVLLGHSLGIPWAPLSSCPSQALQLAGCLSQLHSGLFLYQGLLQALEGISPELGPTLDTLQLDVADFATTIWQQMEELGMAPALQPTQGAMPAFASAFQRRAGGVLVASHLQSFLEVSYRVLRHLAQP"
5,62 % of Neupogen®,"Single-chain G-CSF dimer PEG12000 (ligand, SPA-PEG 12000 covalently linked to the available PEGylation sites; number and positions not stated) TPLGPASSLPQSFLLKCLEQVRKIQGDGAALQEKLCATYKLCHPEELVLLGHSLGIPWAPLSSCPSQALQLAGCLSQLHSGLFLYQGLLQALEGISPELGPTLDTLQLDVADFATTIWQQMEELGMAPALQPTQGAMPAFASAFQRRAGGVLVASHLQSFLEVSYRVLRHLAQPTPLGPASSLPQSFLLKCLEQVRKIQGDGAALQEKLCATYKLCHPEELVLLGHSLGIPWAPLSSCPSQALQLAGCLSQLHSGLFLYQGLLQALEGISPELGPTLDTLQLDVADFATTIWQQMEELGMAPALQPTQGAMPAFASAFQRRAGGVLVASHLQSFLEVSYRVLRHLAQP"
